Test results from US8840891 (RSR, dated 2014).
Read-outs that look alike come from different tables or passages of the source.

Columns and labels:
[1] = molecular target: TSHR with Arg80 mutated to Alanine (human) (UniProt P16473); test: cell-based or functional assay
[2] = molecular target: wild type human TSHR (human) (UniProt P16473); test: cell-based or functional assay
[3] = molecular target: TSHR with Thr104 mutated to Alanine (human) (UniProt P16473); test: cell-based or functional assay
[4] = molecular target: wild type human TSHR (human) (UniProt P16473); test: cell-based or functional assay; remark: listed apart in the source
[5] = molecular target: TSHR with Lys129 mutated to Alanine (human) (UniProt P16473); test: cell-based or functional assay
[6] = molecular target: wild type human TSHR (human) (UniProt P16473); test: cell-based or functional assay; remark: listed apart in the source
[7] = molecular target: TSHR with Lys183 mutated to Alanine (human) (UniProt P16473); test: cell-based or functional assay
[8] = molecular target: wild type human TSHR (human) (UniProt P16473); test: cell-based or functional assay; remark: listed apart in the source
[9] = molecular target: TSHR with Gln235 mutated to Alanine (human) (UniProt P16473); test: cell-based or functional assay
[10] = molecular target: wild type human TSHR (human) (UniProt P16473); test: cell-based or functional assay; remark: listed apart in the source
[11] = molecular target: TSHR coated onto tubes (human) (UniProt P16473); test: TSHR coated tubes, competitor 125I-M22 IgG
[12] = molecular target: TSHR coated onto tubes (TSHR coated tubes) (human) (UniProt P16473); test: TSHR coated tubes
[13] = molecular target: TSHR with Asp232 mutated to Alanine expressed on CHO cells (human) (UniProt P16473); test: cell-based or functional assay
[14] = molecular target: wild type human TSHR (thyrotropin receptor) expressed on CHO cells (human) (UniProt P16473); test: cell-based or functional assay
[15] = molecular target: TSHR with Lys250 mutated to Alanine expressed on CHO cells (human) (UniProt P16473); test: cell-based or functional assay
[16] = molecular target: wild type human TSHR (thyrotropin receptor) expressed on CHO cells (human) (UniProt P16473); test: cell-based or functional assay; remark: listed apart in the source
[17] = molecular target: TSHR coated onto tubes (TSHR coated tubes) (human) (UniProt P16473); test: TSHR coated tubes, in the presence of HBD pool (Tables 4a, 4b)
[18] = molecular target: TSHR coated on ELISA plate wells (RSR Ltd) (human) (UniProt P16473); test: ELISA on TSHR-coated wells, 5C9 IgG-biotin binding with HBD pool (no competitor)

## 5C9 IgG (antibody)
[1]
  Mutated/wild type (%); 5C9 0.01 µg/mL + TSH: 99%
  Mutated/wild type (%); 5C9 0.1 µg/mL + TSH: 82%
  Mutated/wild type (%); 5C9 1.0 µg/mL + TSH: 20%
  Mutated/wild type (%); 5C9 10 µg/mL + TSH: 55%
  Mutated/wild type (%); 5C9 100 µg/mL + TSH: 23%
  Mutated/wild type (%); 5C9 100 µg/mL only: 202%
  cyclic AMP; 5C9 0.01 µg/mL + TSH (fmol/cell well): 14300
  cyclic AMP; 5C9 0.1 µg/mL + TSH (fmol/cell well): 9280
  cyclic AMP; 5C9 1.0 µg/mL + TSH (fmol/cell well): 1360
  cyclic AMP; 5C9 10 µg/mL + TSH (fmol/cell well): 1160
  cyclic AMP; 5C9 100 µg/mL + TSH (fmol/cell well): 518
  cyclic AMP; 5C9 100 µg/mL only (fmol/cell well): 494
[2]
  cyclic AMP; 5C9 0.01 µg/mL + TSH (fmol/cell well): 14400
  cyclic AMP; 5C9 0.1 µg/mL + TSH (fmol/cell well): 11300
  cyclic AMP; 5C9 1.0 µg/mL + TSH (fmol/cell well): 6700
  cyclic AMP; 5C9 10 µg/mL + TSH (fmol/cell well): 2110
  cyclic AMP; 5C9 100 µg/mL + TSH (fmol/cell well): 2230
  cyclic AMP; 5C9 100 µg/mL only (fmol/cell well): 244
[3]
  Mutated/wild type (%); 5C9 0.01 µg/mL + TSH: 95%
  Mutated/wild type (%); 5C9 0.1 µg/mL + TSH: 134%
  Mutated/wild type (%); 5C9 1.0 µg/mL + TSH: 168%
  Mutated/wild type (%); 5C9 10 µg/mL + TSH: 172%
  Mutated/wild type (%); 5C9 100 µg/mL + TSH: 140%
  Mutated/wild type (%); 5C9 100 µg/mL only: 135%
  cyclic AMP; 5C9 0.01 µg/mL + TSH (fmol/cell well): 11700
  cyclic AMP; 5C9 0.1 µg/mL + TSH (fmol/cell well): 9510
  cyclic AMP; 5C9 1.0 µg/mL + TSH (fmol/cell well): 6200
  cyclic AMP; 5C9 10 µg/mL + TSH (fmol/cell well): 3090
  cyclic AMP; 5C9 100 µg/mL + TSH (fmol/cell well): 3110
  cyclic AMP; 5C9 100 µg/mL only (fmol/cell well): 264
[4]
  cyclic AMP; 5C9 0.01 µg/mL + TSH (fmol/cell well): 12300
  cyclic AMP; 5C9 1.0 µg/mL + TSH (fmol/cell well): 3700
  cyclic AMP; 5C9 10 µg/mL + TSH (fmol/cell well): 1800
  cyclic AMP; 5C9 100 µg/mL + TSH (fmol/cell well): 2220
  cyclic AMP; 5C9 100 µg/mL only (fmol/cell well): 195
[5]
  Mutated/wild type (%); 5C9 0.01 µg/mL + TSH: 115%
  Mutated/wild type (%); 5C9 0.1 µg/mL + TSH: 488%
  Mutated/wild type (%); 5C9 1.0 µg/mL + TSH: 1270%
  Mutated/wild type (%); 5C9 10 µg/mL + TSH: 2040%
  Mutated/wild type (%); 5C9 100 µg/mL + TSH: 3240%
  Mutated/wild type (%); 5C9 100 µg/mL only: 203%
  cyclic AMP; 5C9 0.01 µg/mL + TSH (fmol/cell well): 12200
  cyclic AMP; 5C9 0.1 µg/mL + TSH (fmol/cell well): 13300
  cyclic AMP; 5C9 1.0 µg/mL + TSH (fmol/cell well): 12800
  cyclic AMP; 5C9 10 µg/mL + TSH (fmol/cell well): 11200
  cyclic AMP; 5C9 100 µg/mL + TSH (fmol/cell well): 15900
  cyclic AMP; 5C9 100 µg/mL only (fmol/cell well): 217
[6]
  cyclic AMP; 5C9 0.01 µg/mL + TSH (fmol/cell well): 10500
  cyclic AMP; 5C9 0.1 µg/mL + TSH (fmol/cell well): 2710
  cyclic AMP; 5C9 1.0 µg/mL + TSH (fmol/cell well): 1010
  cyclic AMP; 5C9 10 µg/mL + TSH (fmol/cell well): 548
  cyclic AMP; 5C9 100 µg/mL + TSH (fmol/cell well): 491
  cyclic AMP; 5C9 100 µg/mL only (fmol/cell well): 107
[7]
  Mutated/wild type (%); 5C9 0.01 µg/mL + TSH: 130%
  Mutated/wild type (%); 5C9 0.1 µg/mL + TSH: 211%
  Mutated/wild type (%); 5C9 1.0 µg/mL + TSH: 418%
  Mutated/wild type (%); 5C9 10 µg/mL + TSH: 618%
  Mutated/wild type (%); 5C9 100 µg/mL + TSH: 786%
  Mutated/wild type (%); 5C9 100 µg/mL only: 195%
  cyclic AMP; 5C9 0.01 µg/mL + TSH (fmol/cell well): 23300
  cyclic AMP; 5C9 0.1 µg/mL + TSH (fmol/cell well): 24300
  cyclic AMP; 5C9 1.0 µg/mL + TSH (fmol/cell well): 14600
  cyclic AMP; 5C9 10 µg/mL + TSH (fmol/cell well): 7570
  cyclic AMP; 5C9 100 µg/mL + TSH (fmol/cell well): 11400
  cyclic AMP; 5C9 100 µg/mL only (fmol/cell well): 747
[8]
  cyclic AMP; 5C9 0.01 µg/mL + TSH (fmol/cell well): 18000
  cyclic AMP; 5C9 0.1 µg/mL + TSH (fmol/cell well): 11500
  cyclic AMP; 5C9 1.0 µg/mL + TSH (fmol/cell well): 3490
  cyclic AMP; 5C9 10 µg/mL + TSH (fmol/cell well): 1230
  cyclic AMP; 5C9 100 µg/mL + TSH (fmol/cell well): 1460
  cyclic AMP; 5C9 100 µg/mL only (fmol/cell well): 384
[9]
  Mutated/wild type (%); 5C9 0.01 µg/mL + TSH: 244%
  Mutated/wild type (%); 5C9 0.1 µg/mL + TSH: 96%
  Mutated/wild type (%); 5C9 1.0 µg/mL + TSH: 95%
  Mutated/wild type (%); 5C9 10 µg/mL + TSH: 192%
  Mutated/wild type (%); 5C9 100 µg/mL + TSH: 97%
  Mutated/wild type (%); 5C9 100 µg/mL only: 215%
  cyclic AMP; 5C9 0.01 µg/mL + TSH (fmol/cell well): 17500
  cyclic AMP; 5C9 0.1 µg/mL + TSH (fmol/cell well): 7440
  cyclic AMP; 5C9 1.0 µg/mL + TSH (fmol/cell well): 2420
  cyclic AMP; 5C9 10 µg/mL + TSH (fmol/cell well): 1020
  cyclic AMP; 5C9 100 µg/mL + TSH (fmol/cell well): 727
  cyclic AMP; 5C9 100 µg/mL only (fmol/cell well): 256
[10]
  cyclic AMP; 5C9 0.01 µg/mL + TSH (fmol/cell well): 7180
  cyclic AMP; 5C9 0.1 µg/mL + TSH (fmol/cell well): 7780
  cyclic AMP; 5C9 1.0 µg/mL + TSH (fmol/cell well): 2540
  cyclic AMP; 5C9 10 µg/mL + TSH (fmol/cell well): 532
  cyclic AMP; 5C9 100 µg/mL + TSH (fmol/cell well): 747
  cyclic AMP; 5C9 100 µg/mL only (fmol/cell well): 119
[11]
  % inhib of 125I-M22 IgG binding at 0.01 µg/mL: 5%
  % inhib of 125I-M22 IgG binding at 0.1 µg/mL: 6%
  % inhib of 125I-M22 IgG binding at 1 µg/mL: 14%
  % inhib of 125I-M22 IgG binding at 10 µg/mL: 22%
  % inhib of 125I-M22 IgG binding at 100 µg/mL: 53%

B1: 5C9 IgG (human monoclonal autoantibody to the TSHR) (antibody, from another filing, V domains shown)
VH: EVQLVESGGGLIQPGGSLRLSCAASGFTVSSNYMSWVRQAPGKGLEWVSVTYSGGSTSYADSVKGRFTISRDNSKNTLYLQMNSLRAEDTAVYYCARGGRYCSSISCYARSGCDYWGQGTLVTVSS
VL: AIQMTQSPSSLSASVGDRVTITCRASQSISNYLNWYQQKPGKAPKLLIYAASSLQSGVPSRFSGSGSGTDFTLTISSLQPEDFATYYCQQSYSSPSTTFGQGTKLEIK
[12]
  average % binding of labelled tracer: 20%
[13]
  Cyclic AMP produced; 5C9 0.01 µg/mL + TSH (fmol/cell well): 15300
  Cyclic AMP produced; 5C9 0.1 µg/mL + TSH (fmol/cell well): 6560
  Cyclic AMP produced; 5C9 1.0 µg/mL + TSH (fmol/cell well): 1880
  Cyclic AMP produced; 5C9 10 µg/mL + TSH (fmol/cell well): 710
  Cyclic AMP produced; 5C9 100 µg/mL + TSH (fmol/cell well): 55
  Cyclic AMP produced; 5C9 100 µg/mL only (fmol/cell well): 99
  Mutated/wild type (%); 5C9 0.01 µg/mL + TSH: 87%
  Mutated/wild type (%); 5C9 0.1 µg/mL + TSH: 89%
  Mutated/wild type (%); 5C9 1.0 µg/mL + TSH: 176%
  Mutated/wild type (%); 5C9 10 µg/mL + TSH: 89%
  Mutated/wild type (%); 5C9 100 µg/mL + TSH: 33%
  Mutated/wild type (%); 5C9 100 µg/mL only: 19%
[14]
  Cyclic AMP produced; 5C9 0.01 µg/mL + TSH (fmol/cell well): 17600
  Cyclic AMP produced; 5C9 0.1 µg/mL + TSH (fmol/cell well): 7330
  Cyclic AMP produced; 5C9 1.0 µg/mL + TSH (fmol/cell well): 1070
  Cyclic AMP produced; 5C9 10 µg/mL + TSH (fmol/cell well): 794
  Cyclic AMP produced; 5C9 100 µg/mL + TSH (fmol/cell well): 166
  Cyclic AMP produced; 5C9 100 µg/mL only (fmol/cell well): 522
[15]
  Cyclic AMP produced; 5C9 0.01 µg/mL + TSH (fmol/cell well): 14500
  Cyclic AMP produced; 5C9 0.1 µg/mL + TSH (fmol/cell well): 8490
  Cyclic AMP produced; 5C9 1.0 µg/mL + TSH (fmol/cell well): 2570
  Cyclic AMP produced; 5C9 10 µg/mL + TSH (fmol/cell well): 862
  Cyclic AMP produced; 5C9 100 µg/mL + TSH (fmol/cell well): 96
  Cyclic AMP produced; 5C9 100 µg/mL only (fmol/cell well): 448
  Mutated/wild type (%); 5C9 0.01 µg/mL + TSH: 95%
  Mutated/wild type (%); 5C9 0.1 µg/mL + TSH: 135%
  Mutated/wild type (%); 5C9 1.0 µg/mL + TSH: 399%
  Mutated/wild type (%); 5C9 10 µg/mL + TSH: 301%
  Mutated/wild type (%); 5C9 100 µg/mL + TSH: 61%
  Mutated/wild type (%); 5C9 100 µg/mL only: 98%
[16]
  Cyclic AMP produced; 5C9 0.01 µg/mL + TSH (fmol/cell well): 15200
  Cyclic AMP produced; 5C9 0.1 µg/mL + TSH (fmol/cell well): 6300
  Cyclic AMP produced; 5C9 1.0 µg/mL + TSH (fmol/cell well): 643
  Cyclic AMP produced; 5C9 10 µg/mL + TSH (fmol/cell well): 286
  Cyclic AMP produced; 5C9 100 µg/mL + TSH (fmol/cell well): 158
  Cyclic AMP produced; 5C9 100 µg/mL only (fmol/cell well): 458
[17]
  % of labelled protein bound: 17%
[18]
  Abs 450 nm: 2.42 Abs 450 nm
